From publication PMC11843475, “Taming interleukin‐12: Engineering of bispecific antibody‐based IL‐12 mimetics with biased agonism capacities” (Protein Science : A Publication of the Protein Society, 2025)

Target: T1, recombinant human (rh) His-tagged IL-12Rβ1 ECD (human, UniProt P42701 24-545)
T1 construct: Interleukin-12 receptor subunit beta-1, human, extracellular domain; Loaded on anti-Penta His (HIS1K) biosensors through its His tag; also called (rh) IL-12Rβ1; IL-12 receptor subunit β1; source: bought: Acro Biosystems (ILB-H52H9)
Test: BLI; epitope binning / competition: 5 μg/mL His-tagged (rh) IL-12Rβ1 ECD loaded on HIS1K biosensors in PBS; first association 200 nM for 300 s, then second association 200 nM for 300 s with a 100 nM spike of the first molecule; kinetics buffer (PBS + 0.1% Tween-20, 1% BSA); 25°C, 1000 rpm; competition with rh IL-12 analysed in the same combinatorial manner
Conditions: both partners purified

binding result: binds
B1: recombinant human (rh) IL-12 (complex)
chain 1: RNLPVATPDPGMFPCLHHSQNLLRAVSNMLQKARQTLEFYPCTSEEIDHEDITKDKTSTVEACLPLELTKNESCLNSRETSFITNGSCLASRKTSFMMALCLSSIYEDLKMYQVEFKTMNAKLLMDPKRQIFLDQNMLAVIDELMQALNFNSETVPQKSSLEEPDFYKTKIKLCILLHAFRIRAVTIDRVMSYLNAS
chain 2: IWELKKDVYVVELDWYPDAPGEMVVLTCDTPEEDGITWTLDQSSEVLGSGKTLTIQVKEFGDAGQYTCHKGGEVLSHSLLLLHKKEDGIWSTDILKDQKEPKNKTFLRCEAKNYSGRFTCWWLTTISTDLTFSVKSSRGSSDPQGVTCGAATLSAERVRGDNKEYEYSVECQEDSACPAAEESLPIEVMVDAVHKLKYENYTSSFFIRDIIKPDPPKNLQLKPLKNSRQVEVSWEYPDTWSTPHSYFSLTFCVQVQGKSKREKKDRVFTDKTSATVICRKNASISVRAQDRYYSSSWSEWASVPCS
notes: Interleukin-12 p35 alpha-subunit (IL12A), human; Interleukin-12 p40 beta-subunit (IL12B), human; Heterodimeric cytokine of p35 and p40; also called wild-type IL-12; interleukin-12; source: bought: Acro Biosystems
